Measured values reported in CN111620945A.

Key:
[1] = target: T1, 重组SARS-CoV-2刺突蛋白胞外区 (extra cellular domain of spike protein, S-ECD) (SARS-CoV-2), P0DTC2; assay: indirect ELISA, S-ECD coated at 1 μg/ml, end-point titre; settings: remark: other sources report otherwise
[2] = target: T1, 重组SARS-CoV-2刺突蛋白胞外区 (extra cellular …); assay: SPR, Biacore 8K, S-ECD immobilised on a CM5 chip, antibody 125-7.8 nM; settings: remark: other sources report otherwise

B1: FC05 (antibody)
chain 1: EVQLLEQSGAEVKKPGASVRVSCKVSGYTLPEVAMHWVRQAPGKGLEWMGGFDPEDGETIYAQKFQGRVTMTEDTSTDTAYMELSSLRSEDTAVYYCATTTPFSSSFWFDPWGQGTLVTVSS
chain 2: QSVLTQAPSVSGAPGQKVTISCSGSSSNIGNNYVSWYQQLPGTAPKLLIYDNNKRPSGIPDRFSGSKSGTSATLGITGLQTGDEADYYCGTWDSSLSAVVFGGGTKLTVL
Q: Which results are given for B1?
A: 抗体滴度 (dilution factor (1:x) from 1 mg/mL) [1]: 320000; Kd [2]: 0.1 nM
